Here are results for 15 substances from patent US20200024330A1.

Assay in all cases: cell-based or functional assay
For assay [1], the target named is HIV-1 MGRM-F1-022 Env (pseudovirus) (HIV-1).
Assay [2] deals with HIV-1 Env of isolate MGRM-G-017 (clade G pseudovirus) (HIV-1).
The target in assay [3] is HIV-1 Env of isolate MGRM-G-016 (subtype G) (HIV-1).
The target in assay [4] is HIV-1 MGRM-C-027 envelope glycoprotein (Env) on pseudovirus (HIV-1).
Assay [5] deals with HIV-1 Env of isolate MGRM-D-016 (clade D) (HIV-1).
Assay [6] addresses HIV-1 Env of isolate MGRM-D-020 (clade D) (HIV-1).
Assay [7] has as its target HIV-1 Env of isolate MGRM-G-015 (clade G pseudovirus) (HIV-1).
Assay [8] has as its target HIV-1 97ZA012 envelope glycoprotein (Env) on pseudovirus (HIV-1).
For assay [9], the target named is HIV-1 Env of pseudovirus APV_6, clade B (HIV-1).
Assay [10] concerns the target HIV-1 MGRM-C-025 Env (HIV-1).
Assay [11] has as its target HIV-1 Env of isolate MGRM-D-019 (HIV-1).
Assay [12] concerns the target HIV-1 Env of isolate 98CN009 (HIV-1).
In assay [13] the target is HIV-1 Env of isolate MGRM-G-011 (subtype G) (HIV-1).
Assay [14] concerns the target HIV-1 MGRM-A-012 envelope glycoprotein (Env) (HIV-1).
Assay [15] addresses HIV-1 MGRM-C-004 Env (HIV-1).
The target in assay [16] is HIV-1 Env of isolate MGRM-G-019 (clade G pseudovirus) (HIV-1).
Assay [17] concerns the target HIV-1 MGRM-F1-016 Env (pseudovirus) (HIV-1).
Assay [18] has as its target HIV-1 Env of isolate MG RM-D-019 (subtype D) (HIV-1).
Assay [19] concerns the target HIV-1 Env of isolate MG RM-D-013 (subtype D) (HIV-1).
Assay [20] deals with HIV-1 MGRM-Chronic-B-018 Env (pseudovirus) (HIV-1).
The target in assay [21] is HIV-1 PVO.4 Env (pseudovirus) (HIV-1).
The target in assay [22] is HIV-1 APV_6 Env (pseudovirus) (HIV-1).
Assay [23] concerns the target HIV-1 Env of isolate MGRM-C-027 (pseudovirus) (HIV-1 isolate MGRM-C-027, subtype C).
Assay [24] addresses HIV-1 Env of isolate 98CN009 (subtype CRF07_BC) (HIV-1).
For assay [25], the target named is HIV-1 Env of isolate MGRM-F1-012 (subtype F) (HIV-1).
Assay [26] addresses HIV-1 Env of isolate MGRM-C-004 (pseudovirus) (HIV-1 isolate MGRM-C-004, subtype C).
Assay [27] addresses HIV-1 Env of isolate MGRM-C-026 (pseudovirus) (HIV-1 isolate MGRM-C-026, subtype C).
Assay [28] deals with HIV-1 JR-CSF Env E466A (HIV-1 (isolate JR-CSF)) (UniProt P20871).
In assay [29] the target is HIV-1 JR-CSF Env F468A (HIV-1 (isolate JR-CSF)) (UniProt P20871).
The target of assay [30] is HIV-1 Env of isolate 92WR024 (HIV-1).
The target in assay [31] is HIV-1 Env of isolate 92WR009 (HIV-1).
The target of assay [32] is HIV-1 Env of isolate PVO.4 (HIV-1).
In assay [33] the target is HIV-1 Env of isolate MGRM-Chronic-B-002 (HIV-1).
Assay [34] has as its target HIV-1 Env of isolate MGRM-Chronic-B-001 (HIV-1).

Chain of PGT-142 (4995_E20) (antibody) (VH): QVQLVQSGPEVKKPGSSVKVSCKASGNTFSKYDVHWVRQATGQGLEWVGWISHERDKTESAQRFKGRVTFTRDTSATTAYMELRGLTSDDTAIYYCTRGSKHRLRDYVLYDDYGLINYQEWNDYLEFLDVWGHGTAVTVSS
Chain of PGT-142 (4995_E20) (antibody) (VL): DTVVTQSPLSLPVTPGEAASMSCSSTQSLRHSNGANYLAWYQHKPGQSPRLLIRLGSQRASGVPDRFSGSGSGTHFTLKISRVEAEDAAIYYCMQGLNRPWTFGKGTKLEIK
Chain of PGT-144 (4970_K22) (antibody) (VH): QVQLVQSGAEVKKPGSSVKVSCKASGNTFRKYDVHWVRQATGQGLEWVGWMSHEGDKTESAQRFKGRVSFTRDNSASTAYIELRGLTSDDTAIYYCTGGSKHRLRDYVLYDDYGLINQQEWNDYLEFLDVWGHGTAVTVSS
Chain of PGT-144 (4970_K22) (antibody) (VL): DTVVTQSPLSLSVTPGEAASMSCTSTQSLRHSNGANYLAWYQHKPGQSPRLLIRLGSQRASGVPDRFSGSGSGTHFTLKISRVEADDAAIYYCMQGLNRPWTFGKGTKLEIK
Chain of PGT-143 (4980_N08) (antibody) (VH): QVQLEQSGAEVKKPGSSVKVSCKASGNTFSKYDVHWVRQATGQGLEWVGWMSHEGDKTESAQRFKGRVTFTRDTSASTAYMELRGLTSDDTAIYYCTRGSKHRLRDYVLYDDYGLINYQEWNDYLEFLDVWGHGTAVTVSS
Chain of PGT-143 (4980_N08) (antibody) (VL): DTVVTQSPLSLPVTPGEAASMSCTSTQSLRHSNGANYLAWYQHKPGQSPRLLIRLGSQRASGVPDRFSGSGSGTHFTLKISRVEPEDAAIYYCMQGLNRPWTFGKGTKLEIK
Chain of PGT-141 (4964_G22; 4993_K13) (antibody) (VH): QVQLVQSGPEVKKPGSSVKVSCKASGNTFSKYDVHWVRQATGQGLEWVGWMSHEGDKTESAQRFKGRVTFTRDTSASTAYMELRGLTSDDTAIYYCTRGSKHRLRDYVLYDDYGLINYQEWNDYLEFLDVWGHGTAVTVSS

As usually defined, the IC50 is the concentration at which inhibition is half-maximal. High values mean lower potency, low ones higher potency. With 1496_C09 (PG9) (TCN-109) (antibody), the IC50 (µg/ml), pseudovirus neutralization in assay [1] turned out to be 0.06 µg/mL; in assay [2], 0.03 µg/mL; in assay [5] it was 0.1 µg/mL; in [6], 2.03 µg/mL; in assay [7] it was 1.51 µg/mL; in assay [8] it was 1.27 µg/mL. The IC50 (µg/ml), pseudovirus neutralization amounted to 0.12 µg/mL in [9], 11.2 µg/mL in [14], 0.67 µg/mL in [16] and 0.58 µg/mL in [17]. In addition, the neutralization IC50 came out at 1.36 µg/mL in assay [3] and 0.335 µg/mL in assay [13]. The same substance showed an IC50 (ug/ml), neutralizing activity in assay [4] of 2.45 µg/mL. The same substance gave an IC50 neutralization in [4] of 2.45 µg/mL. In addition, the IC50 in assay [10] came to 0.17 µg/mL; in assay [15], 1.18 µg/mL. Moreover, in [11], the IC50 (µg/mL), pseudovirus neutralization came out at 0.038 µg/mL. Besides, in assay [12], the IC50, pseudovirus neutralization was 0.371 µg/mL.

Take 4838_L06 (PGT-121) (antibody): the IC50 (µg/mL), pseudovirus neutralization is over 50 µg/mL in [18], over 50 µg/mL in assay [19], 0.009 µg/mL in assay [24] and 1.91 µg/mL in [25]. The IC50, pseudovirus neutralization in [20] was over 50 µg/mL; in [21], 0.137 µg/mL; in [22] it was 0.018 µg/mL. Also, the IC50 (µg/mL) neutralization in [23] stood at 0.011 µg/mL; in assay [26] it was 0.011 µg/mL; in assay [27], 0.002 µg/mL.

Regarding 4858_P08 (PGT-123) (antibody), the IC50 (µg/mL), pseudovirus neutralization was over 50 µg/mL in assay [18], over 50 µg/mL in assay [19], 0.007 µg/mL in assay [24] and 22.2 µg/mL in assay [25]. The IC50 (ug/ml), neutralizing activity in assay [4] amounted to 0.0169 µg/mL. Besides, the IC50, pseudovirus neutralization in assay [4] is 0.0169 µg/mL; in assay [20], over 50 µg/mL; in assay [21], 0.105 µg/mL; in assay [22] it was 0.023 µg/mL. This substance came in with an IC80, pseudovirus neutralization in assay [4] of 0.149 µg/mL. The IC90 (pseudovirus neutralization) in assay [4] was over 10 µg/mL. Besides, the IC95, pseudovirus neutralization in assay [4] is over 10 µg/mL. Moreover, the Fold IC50 increase relative to wild-type in assay [28] is 0.6 fold; in [29] it was 0.5 fold. Besides, the IC50 (µg/mL) neutralization is 0.02 µg/mL in [23], 0.009 µg/mL in assay [26] and 0.001 µg/mL in assay [27].

With 4877_D15 (PGT-122) (antibody), the IC50 (µg/mL), pseudovirus neutralization in [18] is over 50 µg/mL; in assay [19], over 50 µg/mL; in assay [24], 0.013 µg/mL; in [25] it was over 50 µg/mL. In assay [4], this substance showed an IC50 (ug/ml), neutralizing activity of 0.0388 µg/mL. For the same substance, the IC50, pseudovirus neutralization in assay [20] is over 50 µg/mL; in [21], 0.689 µg/mL; in [22], 0.019 µg/mL. For the same substance, the IC50 (µg/mL) neutralization in [23] came to 0.039 µg/mL; in assay [26] it was 0.02 µg/mL; in assay [27], 0.006 µg/mL.

For the substance 5123_A06 (PGT-125) (antibody), the IC50 (µg/mL), pseudovirus neutralization in [18] is 0.049 µg/mL; in assay [19] it was over 50 µg/mL; in assay [24] it was 0.03 µg/mL; in [25] it was over 50 µg/mL. The substance further showed an IC50 (ug/ml), neutralizing activity in [4] of over 10 µg/mL. This substance also returned a neutralization IC50 in assay [4] of over 10 µg/mL. The substance further yielded a neutralization IC80 in assay [4] of over 10 µg/mL. For the same substance, the neutralization IC90 in [4] was over 10 µg/mL. In assay [4], this substance registered a neutralization IC95 of over 10 µg/mL. Also, the Fold IC50 increase relative to wild-type in assay [28] is 1.6 fold; in [29], 1 fold. Besides, the IC50, pseudovirus neutralization in assay [20] is over 50 µg/mL; in [21], 0.042 µg/mL; in assay [22] it was 0.021 µg/mL. Further, the IC50 (µg/mL) neutralization in assay [23] is over 50 µg/mL; in assay [26] it was 1.82 µg/mL; in assay [27], 0.005 µg/mL.

Consider 5141_B17 (PGT-126) (antibody), for which the IC50 (µg/mL), pseudovirus neutralization was over 50 µg/mL in [18], over 50 µg/mL in assay [19], 0.019 µg/mL in assay [24] and 0.3 µg/mL in assay [25]. This substance had an IC50 (ug/ml), neutralizing activity in assay [4] of 1.14 µg/mL. The values for the Fold IC50 increase relative to wild-type in assay [28] and in assay [29] were 1.4 fold and 0.7 fold, respectively. For the same substance, the IC50, pseudovirus neutralization in [20] is 0.052 µg/mL; in assay [21], 0.017 µg/mL; in assay [22], 0.007 µg/mL. In addition, the IC50 (µg/mL) neutralization in assay [23] is 15.6 µg/mL; in assay [26] it was 0.033 µg/mL; in assay [27] it was 0.007 µg/mL.

For 5145_B14 (PGT-127) (antibody), the IC50 (µg/mL), pseudovirus neutralization was over 50 µg/mL in [18], over 50 µg/mL in [19], 0.09 µg/mL in assay [24] and over 50 µg/mL in assay [25]. The Fold IC50 increase relative to wild-type in assay [28] stood at 0.9 fold; in assay [29], 3 fold. Further, the IC50, pseudovirus neutralization in assay [20] is 1.9 µg/mL; in [21] it was 0.164 µg/mL; in assay [22] it was 0.04 µg/mL. Further, the IC50 (µg/mL) neutralization in assay [23] is over 50 µg/mL; in assay [26] it was 0.532 µg/mL; in assay [27] it was 0.014 µg/mL.

As to PGT-121 (antibody), the IC50 (µg/mL), pseudovirus neutralization is over 50 µg/mL in assay [30] and 1.74 µg/mL in assay [31].

For the substance PGT-122 (antibody), the IC50 (µg/mL), pseudovirus neutralization is over 50 µg/mL in [30] and 42.4 µg/mL in assay [31].

Turning to PGT-141 (4964_G22; 4993_K13) (antibody), the neutralization IC50 in assay [3] turned out to be 4.69 µg/mL; in [13] it was 0.086 µg/mL.

As for PGT-142 (4995_E20) (antibody), the neutralization IC50 in [3] is 8.17 µg/mL; in [13] it was 0.046 µg/mL.

As for PGT-143 (4980_N08) (antibody), the results for the neutralization IC50 in assay [3] and in [13] were 7.6 µg/mL and 0.074 µg/mL, respectively.

For the substance PGT-144 (4970_K22) (antibody), the neutralization IC50 was over 50 µg/mL in assay [3] and 1.58 µg/mL in assay [13].

In the case of PGV04 (antibody), the neutralization IC50 in assay [3] turned out to be 0.019 µg/mL; in assay [13], 0.78 µg/mL. For the same substance, the IC50 (µg/mL), pseudovirus neutralization in assay [11] came to 0.35 µg/mL. For the same substance, the IC50, pseudovirus neutralization in assay [12] is 0.0125 µg/mL.

Turning to VRC01 (antibody), the neutralization IC50 stood at 0.063 µg/mL in [3], 0.218 µg/mL in [32] and 0.065 µg/mL in assay [13]. For the same substance, the IC50 in assay [33] is 0.117 µg/mL; in assay [34], 0.066 µg/mL. This substance also came in with an IC50, pseudovirus neutralization in [11] of 0.119 µg/mL.
